Measurements published in patent publication US20170015742A1 (published 2017).
Substitutions are numbered along the chain they refer to.

B1: hBFU-3E2.1 (antibody, V domains shown)
VH: EVQLVQSGAEVKKPGSSVKVSCKASGYTFTESYMYWVKQAPGQGLELIGRIDPEDGSTDYVEKFKNKATLTADKSTSTAYMELSSLRSEDTAVYFCARFGARSYFYPMDAWGQGTTVTVSS
VL: ETVLTQSPATLSLSPGERATLSCRASESVSTLMHWYQQKPGQQPRLLIYGASNLESGVPARFSGSGSGTDFTLTISSLEPEDFAVYFCQQSWNDPWTFGGGTKVEIK
B2: hBFU-3E2.4 (antibody, V domains shown)
VH: B1 VH with K38R, K67R, A68V, F95Y
VL: ATQLTQSPSSLSASVGDRVTISCRASESVSTLMHWYQQKPGKQPRLLIYGASNLESGVPSRFSGSGSGTDFTLTISSLQPEDFATYFCQQSWNDPWTFGGGTKVEIK
B3: hBFU-3E2.2 (antibody, V domains shown)
VH: B1 VH with K38R, K67R, A68V, F95Y
VL: B1 VL
B4: hBFU-3E2.3 (antibody, V domains shown)
VH: B1 VH
VL: B2 VL
B5: hBDI-9E8.2 (antibody, V domains shown)
VH: EVTLRESGPALVKPTQTLTLTCTFSGFSLSTYGMGVGWIRQPPGKALEWLANIWWDDDKYYNPSLKNRLTISKDTSKNQVVLTMTNMDPVDTATYYCARIESIGTTYSFDYWGQGTMVTVSS
VL: NFMLTQPHSVSESPGKTVTISCERSSGDIGDSYVSWYQQRPGSPPTNVIYADDQRPSGVPDRFSGSIDSSSNSASLTISGLKTEDEADYFCQSYDINIDIVFGGGTKLTVL
B6: hBDI-9E8.3 (antibody, V domains shown)
VH: B5 VH
VL: EIVLTQSPGTLSLSPGERATLSCERSSGDIGDSYVSWYQQKPGQAPRLLIYADDQRPSGIPDRFSGSGSGTDFTLTISRLEPEDFAVYYCQSYDINIDIVFGGGTKVEIK
B7: hBDI-9E8.4 half body (other)
VH: B5 VH
VL: B6 VL with I2F, L49V
B8: hBDI-9E8.10 (antibody, V domains shown)
VH: B5 VH with V80A, M84I, M117T
VL: DFQLTQSPSSLSASVGDRVTITCERSSGDIGDSYVSWYQQKPGKAPKNVIYADDQRPSGVPSRFSGSGSGNSASLTISSLQPEDFATYYCQSYDINIDIVFGQGTKVEIK
B9: hBDI-9E8.9 (antibody, V domains shown)
VH: B5 VH with V80A, M84I, M117T
VL: DFVLTQSPDSLAVSLGERATINCERSSGDIGDSYVSWYQQKPGQPPKNVIYADDQRPSGVPDRFSGSGSGNSASLTISSLQAEDVAVYFCQSYDINIDIVFGGGTKVEIK
B10: hBDI-5H1.1 (antibody, V domains shown)
VH: EVTLRESGPALVKPTQTLTLTCTFSGFSLSTFGMGVGWIRQPPGKALEWLANIWWDDDKYYNPSLKNRLTISKDTSKNQVVLTMTNMDPVDTATYYCARISTGISSYYVMDAWGQGTTVTVSS
VL: B5 VL with S32T, P44S, N47T, A51G, D52N, F90Y, I96S, N97D
B11: hBDI-5H1.5 (antibody, V domains shown)
VH: B10 VH with R5K, V80A, M84I
VL: B5 VL with S32T, P44S, N47T, A51G, D52N, F90Y, I96S, N97D
B12: hBDI-5H1.6 (antibody, V domains shown)
VH: B10 VH with R5K, V80A, M84I
VL: B5 VL with S32T, A51G, D52N, I96S, N97D
B13: hBDI-9E8.5 (antibody, V domains shown)
VH: B5 VH with A46G, V80A, M84I
VL: B5 VL with P44S, N47T, F90Y
B14: hBDI-9E8.8 (antibody, V domains shown)
VH: B5 VH with A46G, V80A, M84I
VL: B6 VL with I2F, L49V
B15: hBDI-5H1.2 (antibody, V domains shown)
VH: B10 VH
VL: B5 VL with S32T, A51G, D52N, I96S, N97D
B16: hBDI-9E8.7 (antibody, V domains shown)
VH: B5 VH with A46G, V80A, M84I
VL: B6 VL
B17: hBDI-9E8.6 (antibody, V domains shown)
VH: B5 VH with A46G, V80A, M84I
VL: B5 VL
B18: hBDI-9E8.12 (antibody, V domains shown)
VH: EVQLVESGGGLVQPGGSLRLSCAFSGFSLSTYGMGVGWIRQAPGKGLEWLANIWWDDDKYYNPSLKNRLTISKDTSKNQAYLQINSLRAEDTAVYYCARIESIGTTYSFDYWGQGTLVTVSS
VL: B8 VL
B19: hBDI-5H1.10 (antibody, V domains shown)
VH: B10 VH with V80A, M84I
VL: B8 VL with S33T, A52G, D53N, S74T, Y89F, I95S, N96D
B20: hBDI-5H1.12 (antibody, V domains shown)
VH: EVQLVESGGGLVQPGGSLRLSCAFSGFSLSTFGMGVGWIRQAPGKGLEWLANIWWDDDKYYNPSLKNRLTISKDTSKNQAYLQINSLRAEDTAVYYCARISTGISSYYVMDAWGQGTLVTVSS
VL: B8 VL with S33T, A52G, D53N, S74T, Y89F, I95S, N96D
B21: hBDI-5H1.13 (antibody, V domains shown)
VH: B10 VH with R5K, V80A, M84I
VL: B8 VL with S33T, A52G, D53N, S74T, Y89F, I95S, N96D
B22: hBDI-5H1.11 (antibody, V domains shown)
VH: B20 VH
VL: B9 VL with S33T, A52G, D53N, S74T, I95S, N96D
B23: hBDI-5H1.3 (antibody, V domains shown)
VH: B10 VH
VL: B6 VL with S33T, A52G, D53N, I95S, N96D
B24: hBDI-5H1.9 (antibody, V domains shown)
VH: B10 VH with V80A, M84I
VL: B9 VL with S33T, A52G, D53N, S74T, I95S, N96D
B25: hBDI-5H1.16 (antibody, V domains shown)
VH: B10 VH with R5K, A46G, K77N, N78S, V80A, M84I
VL: EFVLTQSPGTLSLSPGERATLSCERSSGDIGDTYVSWYQQKPGQPPRNVIYGNDQRPSGVPDRFSGSGSGTDFTLTISRLEPEDFAVYFCQSYDSDIDIVFGGGTKVEIK
B26: hBDI-5H1.4 (antibody, V domains shown)
VH: B10 VH
VL: B25 VL with P45A, N48L, V60I, F89Y
B27: hBDI-5H1.7 (antibody, V domains shown)
VH: B10 VH with R5K, V80A, M84I
VL: B6 VL with S33T, A52G, D53N, I95S, N96D
B28: hBDI-5H1.8 (antibody, V domains shown)
VH: B10 VH with R5K, V80A, M84I
VL: B25 VL with P45A, N48L, V60I, F89Y
B29: hBDI-5H1.17 (antibody, V domains shown)
VH: B10 VH with R5K, A46G, K77N, N78S, V80A, M84I
VL: B6 VL with I2F, L49V

target: recombinant human PDGF-BB (human, UniProt P01127 82-190); test: cell-based or functional assay
Sequence (P01127 82-190 limits assumed): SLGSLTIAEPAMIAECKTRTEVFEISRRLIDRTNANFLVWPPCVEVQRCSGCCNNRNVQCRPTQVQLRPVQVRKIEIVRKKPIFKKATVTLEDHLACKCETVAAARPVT

Q: B1 was tested. Which “hPDGF-BB IC50 (nM), hPDGF-BB-induced NIH-3T3 cell proliferation” value (from here on “hPDGF-BB IC50 (nM)”) did it give?
A: 0.183 nM

Q: How did the “hPDGF-BB IC50 (nM)” value turn out when B2 was run?
A: 0.571 nM

Q: With B3 as the binder, how does the “hPDGF-BB IC50 (nM)” value read?
A: 0.659 nM

Q: For B4, which “hPDGF-BB IC50 (nM)” value is on record?
A: 0.335 nM

Q: For B5, which “hPDGF-BB IC50 (nM)” value is on record?
A: > 5 nM

Q: With B6 as the binder, how does the “hPDGF-BB IC50 (nM)” value read?
A: 1.58 nM

Q: B7 was tested. Which “hPDGF-BB IC50 (nM)” value did it give?
A: > 5 nM

Q: Which “hPDGF-BB IC50 (nM)” value does the source give for B8 here?
A: 0.562 nM

Q: For B9, which “hPDGF-BB IC50 (nM)” value is on record?
A: 0.574 nM

Q: B10 was tested. Which “hPDGF-BB IC50 (nM)” value did it give?
A: < 10 nM

Q: With B11 as the binder, how does the “hPDGF-BB IC50 (nM)” value read?
A: < 10 nM

Q: For B12, which “hPDGF-BB IC50 (nM)” value is on record?
A: < 10 nM

Q: For B13, which “hPDGF-BB IC50 (nM)” value is on record?
A: > 5 nM

Q: How did the “hPDGF-BB IC50 (nM)” value turn out when B14 was run?
A: 0.105 nM

Q: With B15 as the binder, how does the “hPDGF-BB IC50 (nM)” value read?
A: < 10 nM

Q: With B16 as the binder, how does the “hPDGF-BB IC50 (nM)” value read?
A: 0.35 nM

Q: B17 was tested. Which “hPDGF-BB IC50 (nM)” value did it give?
A: > 5 nM

Q: For B18, which “hPDGF-BB IC50 (nM)” value is on record?
A: 0.525 nM

Q: With B19 as the binder, how does the “hPDGF-BB IC50 (nM)” value read?
A: < 10 nM

Q: Which “hPDGF-BB IC50 (nM)” value does the source give for B20 here?
A: < 10 nM

Q: With B21 as the binder, how does the “hPDGF-BB IC50 (nM)” value read?
A: < 10 nM

Q: How did the “hPDGF-BB IC50 (nM)” value turn out when B22 was run?
A: < 10 nM

Q: Which “hPDGF-BB IC50 (nM)” value does the source give for B23 here?
A: < 10 nM

Q: Which “hPDGF-BB IC50 (nM)” value does the source give for B24 here?
A: < 10 nM

Q: With B25 as the binder, how does the “hPDGF-BB IC50 (nM)” value read?
A: < 10 nM

Q: B26 was tested. Which “hPDGF-BB IC50 (nM)” value did it give?
A: < 10 nM

Q: Which “hPDGF-BB IC50 (nM)” value does the source give for B27 here?
A: < 10 nM

Q: With B28 as the binder, how does the “hPDGF-BB IC50 (nM)” value read?
A: < 10 nM

Q: With B29 as the binder, how does the “hPDGF-BB IC50 (nM)” value read?
A: < 10 nM
